Experimental data published in the DeepSol protein solubility set.

Experiment: soluble on expression in E. coli; label from the status in PepcDB or PDB records
With “MRFFLSPPHMGGNELKYIEEVFKSNYIAPLGEFVNRFEQSVKDYSKSENALALNSATAALHLALRVAGVKQDDIVLASSFTFIASVAPICYLKAKPVFIDCDETYNIDVDLLKLAIKECEKKPKALILTHLYGNAAKMDEIVEICKENDIVLIEDAAEALGSFYKNKALGTFGEFGVYSYNGNKIITTSGGGMLIGKNKEKIEKARFYSTQARENCLHYEHLDYGYNYRLSNVLGAIGVAQMEVLEQRVLKKREIYEWYKEFLGEYFSFLDELENSRSNRWLSTALINFDKNELNACQKDINISQKNITLHPKISKLIEDLKNKQIETRPLWKAMHTQEVFKGAKAYLNGNSELFFQKGICLPSGTAMSKDDVYEISKLILKSIKAGSHHHHHH” the “soluble on expression in E. coli” value was “soluble”.
With “MAIAKTDVLKFTTEVQPIGKQQYMELSKDIFVFSYLCGGINFTDIANLTNENIQNGRLHYIRQKTKKPIKIGIPQEAMQIIEKYSKESKGYLFPILDSKIHKTALQKQNRIHKILGKVNKNLKLLAAQLGVEANLTTYVARHSFASVLKKSGVNIALISEALGHSDLATTQIYLDSFDNEQVDEAMRNLLEHHHHHH” the “soluble on expression in E. coli” value was “not soluble”.
In the case of “MSLQVEFRECDPGNLWIWFEFAEPPVPAELEYLKEVLESWYVLGKLGGFNAERLVAQEAEVDLSYLEYPSDSAPLTSLMHNMGSLEEKGNWARCWFDLGTADALALDVLINALRTLSLEYINLSRVIIGGQNEDWPTPDPEETDVYDDLNGYLRDHWGEEGEGHHHHHH”, the “soluble on expression in E. coli” value is reported as “soluble”.
In the case of “MSLYRDSKRKIIRDLQKQDIQYVEYGDTRTLIIPTDKYFMFSSPRLNEICYPGLNNVIRLLNFYPQSTIYVAGFTDNVGSRSHKRKLSQAQAETMMTFLWANGIAAKRLKAEGYGDKNAISDNAIIHGSAQNRRIEIQWFTSPAQPPQPQMAYVKEGHHHHHH”, the “soluble on expression in E. coli” value is reported as “soluble”.
In the case of “MMNDGKQQSTFLFHDYETFGTHPALDRPAQFAAIRTDSEFNVIGEPEVFYCKPADDYLPQPGAVLITGITPQEARAKGENEAAFAARIHSLFTVPKTCILGYNNVRFDDEVTRNIFYRNFYDPYAWSWQHDNSRWDLLDVMRACYALRPEGINWPENDDGLPSFRLEHLTKANGIEHSNAHDAMADVYATIAMAKLVKTRQPRLFDYLFTHRNKHKLMALIDVPQMKPLVHVSGMFGAWRGNTSWVAPLAWHPENRNAVIMVDLAGDISPLLELDSDTLRERLYTAKTDLGDNAAVPVKLVHINKCPVLAQANTLRPEDADRLGINRQHCLDNLKILRENPQVREKVVAIFAEAEPFTPSDNVDAQLYNGFFSDADRAAMKIVLETEPRNLPALDITFVDKRIEKLLFNYRARNFPGTLDYAEQQRWLEHRRQVFTPEFLQGYADELQMLVQQYADDKEKVALLKALWQYADEIVEHHHHHH”, the “soluble on expression in E. coli” value is reported as “soluble”.
With “MSQPYSAVADATGKAYVDIRVCDLLVQQGNMPKGLDSDFQIDGLYVVLRCQEDVRRTSCLWSTAPGACATELQSAAMQLGAAAGAYEAQSDDALVWNEMFRFVVPPALPLSTPAISPRAPHSPPSADGGDPQGGFCAPYTPPLPLSGSASGVAGGLHDIPGGIALPMSTAASGGMRAAGSSGFPVPYTPQPSSLAISTPPLHSAAAQKQPSGGGNGARATEAVASHASLFYPTIELELWRSAPLSENLLGRYKYHVPMELMQGGYALSNLDAVVERVVLLRTKDAPSIMGNLYGWSGHRLSLRLRVQAVGLAPLMAAWSPQQGSEATMTAASTIGSAAYPAPFPTGMLGNTVTGAPPYVAAGVYGAPLGTLNPVLVNLLAPLGVPTGGSGAGQLAPTVMMSMPGGMGGDNLHKPGQPPFFSMFPPASEAPADVGGKMFHPHLPGVLPATPQSSGQGILGDGDLTWQSSTTQPTVYPPYRLPR” the “soluble on expression in E. coli” value was “not soluble”.
In the case of “MGSDKIHHHHHHMETQTRKHSEQKHNSFNNSLEVWKLCFSYPDFVFVSCFNNSLEVWKPGKTLTYDSATNGFNNSLEVWKHSSEALFKAEFRRFNNSLEVWKHHRARRRTLLLPGFNNSLEVWKLIDFKYDSSHYSGFNNSLEVWKPFVLELPDACDCTCFNNSLEVWKPHHRGDSLIRCRVSIIP”, the “soluble on expression in E. coli” value is reported as “not soluble”.
For “GSHMPNYDTSIDIEDIKKILPHRYPFLLVDKVIYMQPNKTIIGLKQVSTNEPFFNGHFPQKQIMPGVLQIEALAQLAGILCLKSDDSQKNNLFLFAGVDGVRWKKPVLPGDTLTMQANLISFKSSLGIAKLSGVGYVNGKVVINISEMTFALSK”, the “soluble on expression in E. coli” value was “soluble”.
For “MGSDKIHHHHHHMSDTITFWGVRGSIACPFPGHMAYGGNTSCVALGLGGQTVILDAGTGIRALGASAALRGVSRLALLFSHVHRDHIEGFPFFAPAHDRAVRLDIFAGPIEGASIRQLLDNLMSRPMFPLSLDQLRAQKVFHDLPAATAFTLFERIKVRTAALNHPGGATAYRFEHGGRVVCYVTDTEHRPGQPDAGLLELIAGADYVLYDSTYTDREFAAHRGWGHSTWEEGVRLCRQAGARHLVIFHHDPDHDDAAMAAIETAARAAWGGTLVAREGMTIALDSGVVTQAGR”, the “soluble on expression in E. coli” value was “not soluble”.
In the case of “MSEPISPRTPQQALAALLARYAPKHLLLVGASRLPAVEAFIHNHPQCQLAHSPAAALPAELAGQRFDLALFVDCLEHLPQRTGLQLLAGVRNLNASRVAVLVDLEASDWQETDFFALAMQNSERFQREGQTLTLYTYDLYEYKQVPDWLNAKFWANPENFGKYWW”, the “soluble on expression in E. coli” value is reported as “not soluble”.
With “MELMKDDRYSPDWKNIAITKKQSVHWVCEWCGVQCLKPGEGKGLLKEERYRLRMAVHHCDYDPGNNSPSNLMAVCSPCHLYYHRRQQGNITPGQLKITINLEHHHHHH” the “soluble on expression in E. coli” value was “soluble”.
In the case of “MAQRRESLNMGEFAEEAIIVEEVAAPKRVNHFIEANTQEVTLQHLQQDCIIPSFASMEETISHQSFIGAVVDAAKDYFHGEQFDMPEIRISHPINGRIPSALGKKASELTDEEKTLFYQRMCFCFEIPSIVHDEYGNRLALSIGGVRAYNEINLYSKKSVERFKIFIGFRNRVCSNLMLTTDGLQDKIEVLSIQELYAAALNLFHAYNPSKDLHLLRTLGQMSISTSEFCQIIGRMRLYQALTPNQQKRLPRLLLGDSQINAACRAFVSDANFKSTGDSITGWQLLNLLNGSVKSSYIDNFLERNLNCTEFVQGIQRAKLGDSEYAWFLG”, the “soluble on expression in E. coli” value is reported as “not soluble”.
In the case of “QTVIKGLVLAADNEAPVSYASIYVAETKSGVVADESGRFILRLHPGRYRLAIRSMGYTPLETELLVGEKSEEKTFRLSSVIYDLKEVEVIGKRPKEDPAYPIMRELIARTPVYEHMVKSYQAKVYTKGSMRLDKLPFWLRYKKADGISAKDLEKKRFVIESQASLEFRHPNKYNKQVRAMRSSIPDDLKSDTTDYMQIISTNIYAKEFSLDGIVNMASPIRTGVLESYTYKLEGTSREKERKVYHISFKGRRDAMRGELWVIDSIWCLQALKLEIKAYDMIRYKVDISLNPLEKDVYLPTTYAIGMEMQSMGLKLEYQYFSSLVYDSLEIDRKLLSTARRAEGLRFRTNREVNRHLRMLESRLDTLGYHLPDKYMLPDTELQAKVRFDSLAFDRDSSYWDAVVTAPLTDEEAQSYANRDSLMQAFEKKRRFGGGREGERTGRTSILGAILGGHDYKMGEGTTLGFNGLIRGSLYDYRYTDGFWLGQSFFFRQKFSKGVDLTLRPILYYTTHRRKLYWDVRADFRYAPLSGGLLSLSAGRQSADLTGPFANTDWRIQTFLTTLVDGRGHLMLYDKKYLRLSNQIDLLPGLQLFLFAEGRHSSPLAENRVWGIFKKPIKNKLIGGIASSPDSLLYSMPDHRSLTVGGSIRYNPAPYYRLDKDGRKRYDGVGTRAPLFGLTYRQAIPLGREHDSDYIYLSGSVRQNLRLNPLHSLYYHFTVGSYFRRHTVHLDEQRYLKADNALFQIGGTLHDSFQTLPPYSYTDQNFLILQTR”, the “soluble on expression in E. coli” value is reported as “not soluble”.
